{
  "source": "paper PMC9352680",
  "about": "“A comprehensive thermodynamic model for RNA binding by the Saccharomyces cerevisiae Pumilio protein PUF4”",
  "binders": {"B1": {"name": "Ic_S2_P5E.1_K5.1_C5.1_H5.1_A5.1_[T5C]_[A7G]_F5.1_[T9G]_[A10T]_T5.1 (ssRNA)", "RNA": "UUUGAUUAAUAUGAUAUCGUUCUUUCUUGUACUGUGUUUCUUUCUCGAUAUCAUAUUAAUCUUU"}, "B2": {"name": "Ic_S2_P5E.1_K5.1_C5.1_H5.1_A5.1_[T5G]_[A7G]_F5.1_[T8G]_[T9C]_[A10C]_T5.1 (ssRNA)", "RNA": "B1 RNA with C32G, U35G, G36C, U37C"}, "B3": {"name": "Ic_S2_P5E.1_K5.1_C5.1_H5.1_A5.1_[T6A]_[A7T]_F5.1_[T8A]_[T9C]_[A10G]_T5.1 (ssRNA)", "RNA": "B1 RNA with C32U, U33A, G34U, U35A, G36C, U37G"}, "B4": {"name": "Ic_S2_P5E.1_K5.1_C5.1_H5.1_A5.1_[T5A]_[T6C]_F5.1_[T8C]_[T9C]_T5.1 (ssRNA)", "RNA": "B1 RNA with C32A, U33C, G34A, U35C, G36C, U37A"}, "B5": {"name": "Ic_S2_P5E.1_K5.1_C5.1_H5.1_A5.1_[T6A]_[A7T]_F5.1_[T9C]_[A10C]_T5.1 (ssRNA)", "RNA": "B1 RNA with C32U, U33A, G34U, G36C, U37C"}, "B6": {"name": "Ic_S2_P5E.1_K5.1_C5.1_H5.1_A5.1_[T6C]_[A7C]_F5.1_[T8A]_[T9G]_[A10C]_T5.1 (ssRNA)", "RNA": "B1 RNA with C32U, U33C, G34C, U35A, U37C"}, "B7": {"name": "Ic_S2_P5E.1_K5.1_C5.1_H5.1_A5.1_[T5C]_[T6A]_[A7G]_F5.1_[A10G]_T5.1 (ssRNA)", "RNA": "B1 RNA with U33A, G36U, U37G"}, "B8": {"name": "Ic_S2_P5E.1_K5.1_C5.1_H5.1_A5.1_[T5G]_[T6C]_[A7C]_F5.1_[T9C]_T5.1 (ssRNA)", "RNA": "B1 RNA with C32G, U33C, G34C, G36C, U37A"}, "B9": {"name": "Ic_S2_P5E.1_K5.1_C5.1_H5.1_A5.1_[T5C]_[T6C]_[A7C]_F5.1_[T8A]_[T9G]_[A10C]_T5.1 (ssRNA)", "RNA": "B1 RNA with U33C, G34C, U35A, U37C"}, "B10": {"name": "Ic_S2_P5E.1_K5.1_C5.1_H5.1_A5.1_[T6C]_F5.1_[T8G]_[A10C]_T5.1 (ssRNA)", "RNA": "B1 RNA with C32U, U33C, G34A, U35G, G36U, U37C"}, "B11": {"name": "Ic_S2_P5E.1_K5.1_C5.1_H5.1_A5.1_[T5A]_[A7T]_F5.1_[T8A]_[A10C]_T5.1 (ssRNA)", "RNA": "B1 RNA with C32A, G34U, U35A, G36U, U37C"}, "B12": {"name": "Ic_S2_P5E.1_K5.1_C5.1_H5.1_A5.1_[T6C]_[A7G]_F5.1_[T8A]_[A10C]_T5.1 (ssRNA)", "RNA": "B1 RNA with C32U, U33C, U35A, G36U, U37C"}, "B13": {"name": "Ic_S2_P5E.1_K5.1_C5.1_H5.1_A5.1_[T5A]_[T6A]_F5.1_[T9C]_[A10T]_T5.1 (ssRNA)", "RNA": "B1 RNA with C32A, U33A, G34A, G36C"}, "B14": {"name": "Ic_S2_P5E.1_K5.1_C5.1_H5.1_A5.1_[T5A]_[T6C]_[A7C]_F5.1_[T8A]_[T9C]_[A10C]_T5.1 (ssRNA)", "RNA": "B1 RNA with C32A, U33C, G34C, U35A, G36C, U37C"}, "B15": {"name": "Ic_S2_P5E.1_K5.1_C5.1_H5.1_A5.1_[T6C]_[A7G]_F5.1_[T8C]_[T9C]_T5.1 (ssRNA)", "RNA": "B1 RNA with C32U, U33C, U35C, G36C, U37A"}, "B16": {"name": "Ic_S2_P5E.1_K5.1_C5.1_H5.1_A5.1_[T5A]_F5.1_[T9G]_[A10G]_T5.1 (ssRNA)", "RNA": "B1 RNA with C32A, G34A, U37G"}, "B17": {"name": "Ic_S2_P5E.1_K5.1_C5.1_H5.1_A5.1_[A7T]_F5.1_[T9C]_[A10T]_T5.1 (ssRNA)", "RNA": "B1 RNA with C32U, G34U, G36C"}, "B18": {"name": "Ic_S2_P5E.1_K5.1_C5.1_H5.1_A5.1_[T6C]_[A7C]_F5.1_[T8C]_T5.1 (ssRNA)", "RNA": "B1 RNA with C32U, U33C, G34C, U35C, G36U, U37A"}, "B19": {"name": "Ic_S2_P5E.1_K5.1_C5.1_H5.1_A5.1_[A7C]_F5.1_[T8G]_[A10T]_T5.1 (ssRNA)", "RNA": "B1 RNA with C32U, G34C, U35G, G36U"}, "B20": {"name": "Ic_S2_P5E.1_K5.1_C5.1_H5.1_A5.1_[T5C]_[A7G]_F5.1_[T8G]_T5.1 (ssRNA)", "RNA": "B1 RNA with U35G, G36U, U37A"}, "B21": {"name": "Ic_S2_P5E.1_K5.1_C5.1_H5.1_A5.1_[A7C]_F5.1_[T8C]_[T9A]_T5.1 (ssRNA)", "RNA": "B1 RNA with C32U, G34C, U35C, G36A, U37A"}, "B22": {"name": "Ic_S2_P5E.1_K5.1_C5.1_H5.1_A5.1_[T5C]_[T6C]_[A7T]_F5.1_[T8A]_[A10T]_T5.1 (ssRNA)", "RNA": "B1 RNA with U33C, G34U, U35A, G36U"}, "B23": {"name": "Ic_S2_P5E.1_K5.1_C5.1_H5.1_A5.1_[T5C]_[T6A]_[A7G]_F5.1_[T9G]_[A10C]_T5.1 (ssRNA)", "RNA": "B1 RNA with U33A, U37C"}, "B24": {"name": "Ic_S2_P5E.1_K5.1_C5.1_H5.1_A5.1_[T5A]_[A7T]_F5.1_[T8C]_[T9A]_[A10C]_T5.1 (ssRNA)", "RNA": "B1 RNA with C32A, G34U, U35C, G36A, U37C"}, "B25": {"name": "Ic_S2_P5E.1_K5.1_C5.1_H5.1_A5.1_[T5G]_[A7T]_F5.1_[T9A]_[A10T]_T5.1 (ssRNA)", "RNA": "B1 RNA with C32G, G34U, G36A"}},
  "note": "Changes are numbered by the printed parent chain. Names may count otherwise.",
  "data": [
    {"target": "T1, PUF4 RNA-binding domain (Saccharomyces cerevisiae, UniProt P25339 537-888)", "T1 sequence": "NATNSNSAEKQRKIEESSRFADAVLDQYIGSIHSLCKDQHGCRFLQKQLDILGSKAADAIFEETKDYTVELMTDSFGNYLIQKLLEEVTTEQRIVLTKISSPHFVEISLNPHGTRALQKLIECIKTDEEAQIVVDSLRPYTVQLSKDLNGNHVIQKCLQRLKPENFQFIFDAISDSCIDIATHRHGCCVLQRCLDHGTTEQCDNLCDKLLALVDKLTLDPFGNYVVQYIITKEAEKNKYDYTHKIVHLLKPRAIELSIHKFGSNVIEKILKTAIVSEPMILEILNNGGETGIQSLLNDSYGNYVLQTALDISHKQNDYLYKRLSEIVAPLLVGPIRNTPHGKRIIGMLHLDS", "experiment": "Mg; RNA-MaP; 20 mM Na-HEPES pH 7.4, 30 mM KOAc, 0.75 mM MgCl2, 0.1% Tween-20, 5% glycerol, 0.1 mg/mL BSA, 2 mM DTT; 25 C; 0.0125-409.6 nM protein", "details": "tags: N-His6-TEV cleaved; C-SNAP kept, Cy3B-labelled; label: tethered on chip by stalled RNA polymerase", "units": {"Kd": "µM"}, "values": [
      {"binder": "B1", "Kd": 0.0508},
      {"binder": "B2", "Kd": "> 2.3"},
      {"binder": "B3", "Kd": 0.00849},
      {"binder": "B4", "Kd": 0.278},
      {"binder": "B5", "Kd": 0.00226},
      {"binder": "B6", "Kd": 1.56},
      {"binder": "B7", "Kd": 0.00939},
      {"binder": "B8", "Kd": 0.0748},
      {"binder": "B9", "Kd": 0.768},
      {"binder": "B10", "Kd": 0.218},
      {"binder": "B11", "Kd": 0.113},
      {"binder": "B12", "Kd": 1.49},
      {"binder": "B13", "Kd": 0.0815},
      {"binder": "B14", "Kd": 1.06},
      {"binder": "B15", "Kd": 0.844},
      {"binder": "B16", "Kd": 0.0752},
      {"binder": "B17", "Kd": 0.0164},
      {"binder": "B18", "Kd": 0.00909},
      {"binder": "B19", "Kd": 0.0678},
      {"binder": "B20", "Kd": 0.0382},
      {"binder": "B21", "Kd": 0.622},
      {"binder": "B22", "Kd": 0.0096},
      {"binder": "B23", "Kd": 0.00913},
      {"binder": "B24", "Kd": 0.599},
      {"binder": "B25", "Kd": 0.00193},
      {"binder": "UCUCUUGGUAUAUUUUCUCUU (ssRNA)", "note": "[Ib_S1_P4E.1_K4.1_C4.1_H4.1_[T1G]_A4.1_F4.1_[A9T]_T4.1]", "Kd": 1.21},
      {"binder": "UCUCUUUUUAUAUUGUCUCUU (ssRNA)", "note": "[Ib_S1_P4E.1_K4.1_C4.1_H4.1_[G2T]_A4.1_F4.1_[A9G]_T4.1]", "Kd": "> 2.3"},
      {"binder": "UCUCUUGGUAUAUUCUCUCUU (ssRNA)", "note": "[Ib_S1_P4E.1_K4.1_C4.1_H4.1_[T1G]_A4.1_F4.1_[A9C]_T4.1]", "Kd": "> 2.3"},
      {"binder": "UCUCUUCGUAUAUUCUCUCUU (ssRNA)", "note": "[Ib_S1_P4E.1_K4.1_C4.1_H4.1_[T1C]_A4.1_F4.1_[A9C]_T4.1]", "Kd": 1.14}
    ]}
  ]
}
